# Test results taken from PMC8259413.
# B1: 20-mer single-nucleotide gapped DNA (templating G) (dsDNA)
# DNA 1: CGACCGACGGCGCATCAGCC
# DNA 2: GGCTGATGCGC
# DNA 3: GTCGGTCG
# modifications: 5'-phosphate on downstream strand
# Target: DNA polymerase beta (Pol β) (rat, UniProt P06766 1-335)
# Assay: NMR chemical shift titration
binder,measurement,value
B1,binding result,binds
